One data set addresses DHX9 (UniProt Q08211). Nature of the data set: Kd (EC50 corrected by depletion factor). The method, boiled down:
(§1)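 HEK293-FT lysate (2.5 mg protein/well) was pre-incubated 1 h at 4°C with free RNA oligos (0 nM to 30 μM), then 30 min at 4°C with the same 5′-amino-C6 oligos coupled to NHS-Sepharose beads. Bound proteins were quantified by label-free LC-MS/MS in three biological replicates and two independent experiments, and normalised to the water control. EC50 came from a four-parameter log-logistic fit; Kd is EC50 times a protein-dependent depletion factor.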

The target of the next data set is PHAX (UniProt Q9H814). The data set can be described thus: Kd (EC50 corrected by depletion factor). Summed up: as §1
Data set [1] has as its target T1, XRN2 (UniProt Q9H0D6).
T1 sequence: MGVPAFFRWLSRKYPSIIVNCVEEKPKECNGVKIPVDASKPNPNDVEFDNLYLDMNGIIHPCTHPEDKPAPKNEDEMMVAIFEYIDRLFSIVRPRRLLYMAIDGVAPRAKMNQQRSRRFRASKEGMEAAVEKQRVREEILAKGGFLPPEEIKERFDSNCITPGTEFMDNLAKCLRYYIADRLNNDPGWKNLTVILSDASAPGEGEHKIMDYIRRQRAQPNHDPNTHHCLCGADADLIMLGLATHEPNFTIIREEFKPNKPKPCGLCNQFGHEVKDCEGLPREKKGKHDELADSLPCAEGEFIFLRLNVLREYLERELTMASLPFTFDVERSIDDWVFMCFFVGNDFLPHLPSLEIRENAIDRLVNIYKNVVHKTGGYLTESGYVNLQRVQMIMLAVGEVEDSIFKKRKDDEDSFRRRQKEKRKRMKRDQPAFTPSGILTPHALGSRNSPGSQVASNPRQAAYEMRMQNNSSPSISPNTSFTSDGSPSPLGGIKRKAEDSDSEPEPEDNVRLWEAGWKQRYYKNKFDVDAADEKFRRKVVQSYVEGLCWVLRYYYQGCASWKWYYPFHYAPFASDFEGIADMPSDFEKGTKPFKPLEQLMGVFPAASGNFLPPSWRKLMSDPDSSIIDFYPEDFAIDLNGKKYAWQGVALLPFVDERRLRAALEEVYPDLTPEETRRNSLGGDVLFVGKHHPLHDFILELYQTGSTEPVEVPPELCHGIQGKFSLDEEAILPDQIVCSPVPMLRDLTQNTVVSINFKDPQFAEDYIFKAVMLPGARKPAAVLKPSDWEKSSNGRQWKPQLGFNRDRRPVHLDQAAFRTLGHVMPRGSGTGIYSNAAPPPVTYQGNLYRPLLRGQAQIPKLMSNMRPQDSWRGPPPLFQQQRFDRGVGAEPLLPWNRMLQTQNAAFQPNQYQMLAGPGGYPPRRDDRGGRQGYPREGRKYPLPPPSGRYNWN
The data set can be described thus: Kd (EC50 corrected by depletion factor). Summed up:
as §1

The target in another data set is ZC3HAV1 (UniProt Q7Z2W4). The data set can be described thus: Kd (EC50 corrected by depletion factor). Summed up:
as §1

A further data set has as its target T2, HNRNPUL1 (UniProt Q9BUJ2).
T2 sequence: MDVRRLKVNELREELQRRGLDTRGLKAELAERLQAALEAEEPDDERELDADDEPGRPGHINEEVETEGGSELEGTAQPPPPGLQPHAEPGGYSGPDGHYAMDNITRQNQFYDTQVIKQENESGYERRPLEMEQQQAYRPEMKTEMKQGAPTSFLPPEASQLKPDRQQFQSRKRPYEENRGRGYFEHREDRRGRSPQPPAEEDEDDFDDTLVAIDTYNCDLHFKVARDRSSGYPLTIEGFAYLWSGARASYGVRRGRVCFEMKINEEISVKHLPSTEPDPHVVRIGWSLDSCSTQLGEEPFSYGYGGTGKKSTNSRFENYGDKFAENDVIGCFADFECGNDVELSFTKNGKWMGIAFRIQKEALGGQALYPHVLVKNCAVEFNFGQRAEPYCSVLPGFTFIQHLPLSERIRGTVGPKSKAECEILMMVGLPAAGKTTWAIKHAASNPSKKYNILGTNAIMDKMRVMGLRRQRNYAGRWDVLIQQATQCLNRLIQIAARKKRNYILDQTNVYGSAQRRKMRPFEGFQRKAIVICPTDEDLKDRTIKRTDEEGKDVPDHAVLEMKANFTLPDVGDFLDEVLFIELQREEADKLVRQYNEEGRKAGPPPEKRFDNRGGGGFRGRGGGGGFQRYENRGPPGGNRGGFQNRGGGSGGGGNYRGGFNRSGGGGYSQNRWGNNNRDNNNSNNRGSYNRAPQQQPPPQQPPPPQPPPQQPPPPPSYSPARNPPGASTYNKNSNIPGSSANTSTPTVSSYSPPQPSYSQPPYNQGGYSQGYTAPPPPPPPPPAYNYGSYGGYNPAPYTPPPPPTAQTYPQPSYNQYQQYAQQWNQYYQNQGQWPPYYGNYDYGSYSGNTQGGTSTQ
Nature of the data set: EC50 of free RNA motif oligo competing protein binding to immobilised probe. The procedure: (§2)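 Competition-binding assay: HEK293-FT cell lysate (2.5 mg protein) pre-incubated 1 h at 4°C with free motif-containing RNA oligos (0 to 30 µM, 12 doses), then pulled down with the same 5'-amino-C6 RNA oligos immobilised on NHS-Sepharose beads (30 min, 4°C). Bound proteins were quantified by label-free LC-MS/MS and normalised to the water control. EC50 came from a four-parameter log-logistic fit; Kd = EC50 x depletion factor. Random/reversed control probes are dropped.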

For data set [2], the target named is T1, XRN2. The data set is described as above. Here is the method:
as §2

PHAX, sequence (Q9H814 whole entry): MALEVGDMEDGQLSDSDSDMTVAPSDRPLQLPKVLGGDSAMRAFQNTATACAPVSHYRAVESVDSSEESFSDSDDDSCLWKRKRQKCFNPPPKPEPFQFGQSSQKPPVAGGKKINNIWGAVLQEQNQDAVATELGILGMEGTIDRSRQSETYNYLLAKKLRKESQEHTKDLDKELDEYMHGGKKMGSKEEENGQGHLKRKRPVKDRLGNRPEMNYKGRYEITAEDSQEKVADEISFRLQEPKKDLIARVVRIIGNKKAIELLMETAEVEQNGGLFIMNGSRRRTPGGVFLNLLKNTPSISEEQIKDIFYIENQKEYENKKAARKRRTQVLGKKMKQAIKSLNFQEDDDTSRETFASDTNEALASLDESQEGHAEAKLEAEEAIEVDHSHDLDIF
ZC3HAV1, sequence (Q7Z2W4 whole entry): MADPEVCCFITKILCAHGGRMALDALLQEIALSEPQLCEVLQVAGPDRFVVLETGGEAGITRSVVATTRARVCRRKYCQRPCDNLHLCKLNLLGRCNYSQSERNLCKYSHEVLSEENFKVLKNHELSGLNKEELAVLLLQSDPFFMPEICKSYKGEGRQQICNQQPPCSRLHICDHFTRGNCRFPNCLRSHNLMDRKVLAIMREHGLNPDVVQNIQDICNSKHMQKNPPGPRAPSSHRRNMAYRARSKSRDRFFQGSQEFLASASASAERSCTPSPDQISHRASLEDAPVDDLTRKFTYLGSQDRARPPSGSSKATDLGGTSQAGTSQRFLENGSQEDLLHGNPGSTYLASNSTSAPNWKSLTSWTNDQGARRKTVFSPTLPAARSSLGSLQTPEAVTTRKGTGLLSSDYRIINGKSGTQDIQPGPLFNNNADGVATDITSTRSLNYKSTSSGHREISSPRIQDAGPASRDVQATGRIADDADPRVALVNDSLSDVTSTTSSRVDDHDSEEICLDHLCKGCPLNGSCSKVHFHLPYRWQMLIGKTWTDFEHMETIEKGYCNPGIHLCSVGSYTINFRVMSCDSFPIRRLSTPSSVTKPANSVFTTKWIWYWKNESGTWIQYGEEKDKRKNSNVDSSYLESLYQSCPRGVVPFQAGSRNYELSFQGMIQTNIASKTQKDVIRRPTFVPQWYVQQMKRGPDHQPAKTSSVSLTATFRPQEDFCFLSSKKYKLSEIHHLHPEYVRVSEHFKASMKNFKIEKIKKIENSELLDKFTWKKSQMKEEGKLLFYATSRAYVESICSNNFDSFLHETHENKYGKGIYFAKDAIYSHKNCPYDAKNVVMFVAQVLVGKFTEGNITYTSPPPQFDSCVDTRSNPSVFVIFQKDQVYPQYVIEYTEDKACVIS
DHX9, sequence (Q08211 whole entry): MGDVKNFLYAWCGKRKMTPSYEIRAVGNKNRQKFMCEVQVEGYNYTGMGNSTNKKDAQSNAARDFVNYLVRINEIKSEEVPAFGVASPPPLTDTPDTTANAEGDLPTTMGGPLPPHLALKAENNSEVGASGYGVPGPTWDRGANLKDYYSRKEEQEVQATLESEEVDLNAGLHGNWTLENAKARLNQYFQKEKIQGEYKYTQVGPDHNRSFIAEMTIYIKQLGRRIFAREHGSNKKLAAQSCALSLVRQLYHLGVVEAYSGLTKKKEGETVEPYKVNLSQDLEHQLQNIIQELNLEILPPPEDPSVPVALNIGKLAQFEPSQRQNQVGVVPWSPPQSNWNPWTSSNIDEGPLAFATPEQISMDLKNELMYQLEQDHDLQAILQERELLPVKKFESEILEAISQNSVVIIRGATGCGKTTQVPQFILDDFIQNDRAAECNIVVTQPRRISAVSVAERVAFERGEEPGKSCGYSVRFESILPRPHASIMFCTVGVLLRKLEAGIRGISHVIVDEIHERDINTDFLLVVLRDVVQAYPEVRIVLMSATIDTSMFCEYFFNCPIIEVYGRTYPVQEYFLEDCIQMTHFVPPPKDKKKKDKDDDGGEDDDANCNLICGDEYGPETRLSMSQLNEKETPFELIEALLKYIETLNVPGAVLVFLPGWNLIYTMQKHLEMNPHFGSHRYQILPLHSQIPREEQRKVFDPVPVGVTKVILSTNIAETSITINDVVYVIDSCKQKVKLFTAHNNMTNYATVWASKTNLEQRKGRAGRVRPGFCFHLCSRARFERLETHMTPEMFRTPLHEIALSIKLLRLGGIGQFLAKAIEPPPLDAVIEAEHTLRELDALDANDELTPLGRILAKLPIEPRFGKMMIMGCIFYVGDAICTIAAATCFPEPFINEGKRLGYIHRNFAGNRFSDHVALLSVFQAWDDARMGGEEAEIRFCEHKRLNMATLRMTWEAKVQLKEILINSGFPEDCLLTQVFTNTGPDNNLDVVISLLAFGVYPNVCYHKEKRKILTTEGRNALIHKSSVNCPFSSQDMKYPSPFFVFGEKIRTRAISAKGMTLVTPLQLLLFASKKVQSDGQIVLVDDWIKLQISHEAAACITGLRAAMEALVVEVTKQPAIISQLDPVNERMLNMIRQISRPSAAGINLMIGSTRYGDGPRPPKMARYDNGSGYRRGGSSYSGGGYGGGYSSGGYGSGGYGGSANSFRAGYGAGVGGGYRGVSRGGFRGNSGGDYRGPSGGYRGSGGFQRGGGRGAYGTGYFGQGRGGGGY

As for AAUAAA, the Kd (in general, the concentration at which binding is half-saturated) was determined as 1840 nM in the data set with DHX9, 15500 nM with PHAX, 354 nM in the data set with XRN2 [1] and 776 nM with ZC3HAV1. Besides, the figures for the EC50 with HNRNPUL1 and in the data set with XRN2 [2] were 1410 nM and 843 nM, respectively.

For the sequence CUGUCCU, the Kd with DHX9 stood at 155 nM; in the data set with PHAX, 533 nM; in the data set with XRN2 [1], 80.8 nM; in the data set with ZC3HAV1 it was 867 nM. Further, the EC50 (commonly the concentration giving half of the maximal effect) worked out at 152 nM with HNRNPUL1 and 147 nM in the data set with XRN2 [2].

As for UAUUUAU, the Kd with DHX9 was found to be 1230 nM; in the data set with PHAX, 5070 nM; with XRN2 [1] it was 184 nM; in the data set with ZC3HAV1, 4310 nM. The half-maximal effective concentration (EC50) was found to be 643 nM with HNRNPUL1 and 409 nM with XRN2 [2].

Source of the values: the supplement of paper PMC6379048.
